For one substance, fold change of the TIM interaction signal (β-galactosidase activity) against the wild type PER fragment results are on record in US5885831.

The target of assay [1] is LexA-TIM1 (Drosophila melanogaster). Description: yeast two-hybrid, β-galactosidase activity of liquid cultures, LexA-TIM1, 28 C.
The target is the same in assay [2]. Kind of assay: yeast two-hybrid, β-galactosidase activity of liquid cultures, LexA-TIM1, 22 C.
Assay [3] has the same target. Kind of assay: yeast two-hybrid, β-galactosidase activity of liquid cultures, LexA-TIM1, 35 C.

Consider VP16-PER^L233-685 (from UniProt P07663), for which the fold change of the TIM interaction signal (β-galactosidase activity) against the wild type PER fragment in assay [1] stood at 1.8 fold higher; in assay [2], 3.4 fold higher; in assay [3] it was 4.8 fold lower.
